These results are taken from patent publication US20260183405A1, “SMALL MOLECULE-DRUG-CONJUGATES CLEAVABLE IN A TUMOR MICROENVIRONMENT” (priority 2022, published 2026).

pIC50: −log10 of the molar value. Read-outs that look alike come from different tables or passages of the source.

One data set concerns NCI-H292. Nature of the data set: Cytotoxicity in vitro in the presence and absence of elastase (MTT assay). The settings on record: NCI-H292 cells, 72 h incubation. Type of data set: cell-based. How it is done: (§1) Cultivation of cells was performed according to standard procedures with the media recommended by the provider. The cells, in a total volume of 100 μL, were seeded in a 96-well plate with a white bottom (#3610). After a 24 h incubation period at 37° C. and 5% CO2, the medium was exchanged by adding 90 μL fresh medium. The treatment started by adding the test compound in 10 μL of culture medium to the cells in triplicates. Concentrations ranging from 10^−5 M to 10^−13 M were chosen. Two identically treated sets of samples were prepared. One set was treated with the test compound alone, whereas to the second set the compound and 10 nM elastase (NE) was added followed by a 72 h incubation period at 37° C. and 5% CO2. The proliferation was detected using the MTT assay (ATCC). At the end of the incubation period the MTT reagent was added to all samples for 4h. Lysis of the cells followed by addition of the detergent was done overnight. The formed dye was detected at 570 nm. The proliferation of untreated but otherwise identically handled cells was defined as the 100% value. The dose response curves allowed the determination of the respective IC50 values. […]

A further data set has as its system 786-O. Described as above. Type of data set: cell-based. The settings on record: 786-O cells, 72 h incubation. How it is done:
as §1

The test system of the next data set is HT29. The data set is described as above. Type of data set: cell-based. To be noted: HT29 cells, 72 h incubation. How it is done: as §1
Data set [1] in a line: Pharmacokinetics in rat after intravenous administration. Type of data set: in vivo. To be noted: plasma, male rats, intravenous bolus 0.5 mg/kg; for clearance: read-out: CL plasma; for Vd: read-out: VSS. How it is done:
Male rats (n=3) were given an intravenous 0.5 mg/kg bolus dose of test article dissolved in plasma with 1% DMSO and 2% ethanol. Serial blood samples were collected up to 24 hours post-dose. Plasma was harvested from blood samples and stored frozen until sample analysis. Test article plasma concentrations were analyzed by LC/MS/MS. Pharmacokinetic parameters were calculated using non-compartmental analysis.

A further data set concerns SUM149PT. Nature of the data set: Cytotoxicity in vitro in the presence and absence of elastase (MTT assay). Type of data set: cell-based. To be noted: SUM149PT cells, 72 h incubation. How it is done:
as §1

Setting [2] is: compound alone, read-out: IC50 without neutrophil elastase.
The mark [3] stands for this setting: with 10 nM elastase (NE), read-out: IC50 with neutrophil elastase.

Consider `CCc1c2c(nc3ccccc13)-c1cc3c(c(=O)n1C2)COC(=O)[C@@]3(CC)OC(=O)[C@@H](NC(=O)[C@@H]1CCCN1C(=O)[C@H](CC(=O)[O-])NC(=O)CCOCCOCCOCCNC(=O)CCCC(=O)NCCCC[C@H](NC(=O)CCOCCOCCOCCNC(=O)CCC(=O)Nc1cccc2c(C(=O)NCC(=O)N3CC(F)(F)C[C@H]3C#N)ccnc12)C(=O)NCCCCCCCC(=O)[O-])C(C)C.[Na+].[Na+]` [Compound 21, disodium (4S)-4,11-diethyl-3,14-dioxo-3,4,12,14-tetrahydro-1H-pyrano[3′,4′:6,7]indolizino[1,2-b]quinolin-4-yl 1-[(2S,27S)-27-[(7-carboxylatoheptyl)carbamoyl]-2-(carboxylatomethyl)-45-{[4-({2-[(2S)-2-cyano-4,4-difluoropyrrolidin-1-yl]-2-oxoethyl}carbamoyl)quinolin-8-yl]amino}-4,17,21,29,42,45-hexaoxo-7,10,13,32,35,38-hexaoxa-3,16,22,28,41-pentaazapentatetracontanan-1-oyl]-L-prolyl-L-valinate], for which the pIC50 with NCI-H292 (setting [2]) was 6.00 to 7.00; in the data set on NCI-H292 (setting [3]), 8.00 to 9.00; with 786-O (setting [2]) it was less than 6.00; in the data set on 786-O (setting [3]), 8.00 to 9.00; with HT29 (setting [2]), less than 6.00; in the data set on HT29 (setting [3]), 7.00 to 8.00. Also, in data set [1], the AUC lay within 1000 to 10000 ng·h/mL. Moreover, the half-life in data set [1] lay within 0.5 to 1 h. The clearance in data set [1] was in the range of 0.5 to 5 mL/min/kg. Besides, the Vd in data set [1] lay within 0.1 to 0.3 L/kg.
For `CCCNC(=O)Nc1cccc(S(=O)(=O)Nc2cccc([C@@H](CC(=O)O)NC(=O)Nc3ccc(NC(=O)NCCOCCOCCOCCC(=O)NCCCC[C@H](NC(=O)CCOCCOCCOCCNC(=O)Nc4ccc(NC(=O)N[C@H](CC(=O)O)c5cccc(NS(=O)(=O)c6cccc(NC(=O)NCCC)c6)c5)cc4)C(=O)NCCOCCOCCOCCC(=O)N[C@@H](CC(N)=O)C(=O)N4CCC[C@H]4C(=O)N[C@H](C(=O)NCCCN(C(=O)CO)[C@@H](c4cc(-c5cc(F)ccc5F)cn4Cc4ccccc4)C(C)(C)C)C(C)C)cc3)c2)c1` [Compound 18], in data set [1], the AUC was in the range of 100000 to 500000 ng·h/mL, the half-life was 10 to 40 h, the clearance fell in the range of 0.02 to 0.5 mL/min/kg and the Vd was in the range of 0.01 to 0.1 L/kg.
Turning to `CCCNC(=O)Nc1cccc(S(=O)(=O)Nc2cccc([C@@H](CC(=O)O)NC(=O)Nc3ccc(NC(=O)NCCOCCOCCOCCC(=O)N[C@@H](CC(=O)O)C(=O)N4CCC[C@H]4C(=O)N[C@H](C(=O)NCCCN(C(=O)CO)[C@@H](c4cc(-c5cc(F)ccc5F)cn4Cc4ccccc4)C(C)(C)C)C(C)C)cc3)c2)c1` [Compound 25, disodium 1-[(2S)-2-(carboxylatomethyl)-17-{4-[({(1R)-2-carboxylato-1-[3-({3-[(propylcarbamoyl)amino]benzene-1-sulfonyl}amino)phenyl]ethyl}carbamoyl)amino]anilino}-4,17-dioxo-7,10,13-trioxa-3,16-diazaheptadecanan-1-oyl]-L-prolyl-N-{3-[({1R)-1-[1-benzyl-4-(2,5-difluorophenyl)-1H-pyrrol-2-yl]-2,2-dimethylpropyl}(hydroxyacetyl)amino]propyl}-L-valinamide], the negative-log IC50 (pIC50) is less than 6.00 in the data set with NCI-H292 (setting [2]); 7.00 to 8.00 in the data set with NCI-H292 (setting [3]); less than 6.00 in the data set with SUM149PT (setting [2]); 8.00 to 9.00 with SUM149PT (setting [3]); less than 6.00 with HT29 (setting [2]); 8.00 to 9.00 in the data set with HT29 (setting [3]).
For the compound `CCc1c2c(nc3ccccc13)-c1cc3c(c(=O)n1C2)COC(=O)[C@@]3(CC)OC(=O)[C@@H](NC(=O)[C@@H]1CCCN1C(=O)[C@H](CC(=O)[O-])NC(=O)CCOCCOCCOCCNC(=O)[C@H](CCCCNC(=O)CCOCCOCCOCCNC(=O)CCC(=O)Nc1cccc2c(C(=O)NCC(=O)N3CC(F)(F)C[C@H]3C#N)ccnc12)NC(=O)CCOCCOCCOCCNC(=O)CCC(=O)Nc1cccc2c(C(=O)NCC(=O)N3CC(F)(F)C[C@H]3C#N)ccnc12)C(C)C.[Na+]` [Compound 20, sodium (4S)-4,11-diethyl-3,14-dioxo-3,4,12,14-tetrahydro-1H-pyrano[3′,4′:6,7]indolizino[1,2-b]quinolin-4-yl 1-[(2S)-15-{[N2,N6-bis(17-{[4-({2-[(2S)-2-cyano-4,4-difluoropyrrolidin-1-yl]-2-oxoethyl}carbamoyl)quinolin-8-yl]amino}-14,17-dioxo-4,7,10-trioxa-13-azaheptadecanan-1-oyl}-L-lysyl]amino)-2-(carboxylatomethyl)-4-oxo-7,10,13-trioxa-3-azapentadecanan-1-oyl]-L-prolyl-L-valinate], the pIC50 in the data set with NCI-H292 (setting [2]) was 6.00 to 7.00; with NCI-H292 (setting [3]) it was 8.00 to 9.00; in the data set on 786-O (setting [2]), less than 6.00; with 786-O (setting [3]), 8.00 to 9.00; in the data set on HT29 (setting [2]), less than 6.00; in the data set on HT29 (setting [3]), 7.00 to 8.00. For the same compound, in data set [1], the exposure (AUC) fell in the range of 1000 to 10000 ng·h/mL. This compound also registered a half-life in data set [1] of 0.5 to 1 h. Further, in data set [1], the clearance was in the range of 0.5 to 5 mL/min/kg. Further, in data set [1], the Vd lay in the range of 0.1 to 0.3 L/kg.
As to `CCc1c2c(nc3ccccc13)-c1cc3c(c(=O)n1C2)COC(=O)[C@@]3(CC)OC(=O)[C@@H](NC(=O)[C@@H]1CCCN1C(=O)[C@H](CC(=O)O)NC(=O)CCOCCOCCOCCNC(=O)CCC(=O)Nc1cccc2c(C(=O)NCC(=O)N3CC(F)(F)C[C@H]3C#N)ccnc12)C(C)C` [Compound 6, sodium (4S)-4,11-diethyl-3,14-dioxo-3,4,12,14-tetrahydro-1H-pyrano[3′,4′:6,7]indolizino[1,2-b]quinolin-4-yl 1-[(2S)-2-(carboxylatomethyl)-20-{[4-({2-[(2S)-2-cyano-4,4-difluoropyrrolidin-1-yl]-2-oxoethyl}carbamoyl)quinolin-8-yl]amino}-4,17,20-trioxo-7,10,13-trioxa-3,16-diazaicosanan-1-oyl]-L-prolyl-L-valinate], in data set [1], the AUC was less than 1000 ng·h/mL, the half-life was less than 0.5 h, the clearance is more than 5 mL/min/kg and the Vd was 0.3 to 0.9 L/kg.
Regarding `CCCNC(=O)Nc1cccc(S(=O)(=O)Nc2cccc([C@@H](CC(=O)O)NC(=O)Nc3ccc(NC(=O)NCCOCCOCCOCCC(=O)NCCCC[C@H](NC(=O)CCOCCOCCOCCNC(=O)Nc4ccc(NC(=O)N[C@H](CC(=O)O)c5cccc(NS(=O)(=O)c6cccc(NC(=O)NCCC)c6)c5)cc4)C(=O)NCCOCCOCCOCCC(=O)N[C@@H](CC(=O)O)C(=O)N4CCC[C@H]4C(=O)N[C@H](C(=O)N[C@@H](CCN(C(=O)CO)[C@@H](c4cc(-c5cc(F)ccc5F)cn4Cc4ccccc4)C(C)(C)C)C(=O)NC)C(C)C)cc3)c2)c1` [Compound 27], in data set [1], the AUC was 100000 to 500000 ng·h/mL, the half-life was 10 to 40 h, the clearance lay in the range of 0.02 to 0.5 mL/min/kg and the Vd lay within 0.01 to 0.1 L/kg.
Taken in the same sequence, the figures for `CCc1c2c(nc3ccccc13)-c1cc3c(c(=O)n1C2)COC(=O)[C@@]3(CC)OC(=O)[C@@H](NC(=O)[C@@H]1CCCN1C(=O)[C@H](CC(=O)O)NC(=O)CCOCCOCCOCCNC(=O)NCCCC[C@H](NC(=O)N[C@@H](CCC(=O)O)C(=O)O)C(=O)O)C(C)C` [Compound 5, tetrasodium (4S)-4,11-diethyl-3,14-dioxo-3,4,12,14-tetrahydro-1H-pyrano[3′,4′:6,7]indolizino[1,2-b]quinolin-4-yl 1-[(2S,23S,27S)-23,27,29-tricarboxylato-2-(carboxylatomethyl)-4,17,25-trioxo-7,10,13-trioxa-3,16,18,24,26-pentaazanonacosanan-1-oyl]-L-prolyl-L-valinate] were 1000 to 10000 ng·h/mL, 1 to 5 h, 0.5 to 5 mL/min/kg and 0.1 to 0.3 L/kg.
